Reference: IntAct's records for PubMed 23348841

B1: Nonsense-mediated mRNA decay factor SMG5 (Homo sapiens), Q9UPR3 (parent)
chain: MSQGPPTGESSEPEAKVLHTKRLYRAVVEAVHRLDLILCNKTAYQEVFKPENISLRNKLRELCVKLMFLHPVDYGRKAEELLWRKVYYEVIQLIKTNKKHIHSRSTLECAYRTHLVAGIGFYQHLLLYIQSHYQLELQCCIDWTHVTDPLIGCKKPVSASGKEMDWAQMACHRCLVYLGDLSRYQNELAGVDTELLAERFYYQALSVAPQIGMPFNQLGTLAGSKYYNVEAMYCYLRCIQSEVSFEGAYGNLKRLYDKAAKMYHQLKKCETRKLSPGKKRCKDIKRLLVNFMYLQSLLQPKSSSVDSELTSLCQSVLEDFNLCLFYLPSSPNLSLASEDEEEYESGYAFLPDLLIFQMVIICLMCVHSLERAGSKQYSAAIAFTLALFSHLVNHVNIRLQAELEEGENPVPAFQSDGTDEPESKEPVEKEEEPDPEPPPVTPQVGEGRKSRKFSRLSCLRRRRHPPKVGDDSDLSEGFESDSSHDSARASEGSDSGSDKSLEGGGTAFDAETDSEMNSQESRSDLEDMEEEEGTRSPTLEPPRGRSEAPDSLNGPLGPSEASIASNLQAMSTQMFQTKRCFRLAPTFSNLLLQPTTNPHTSASHRPCVNGDVDKPSEPASEEGSESEGSESSGRSCRNERSIQEKLQVLMAEGLLPAVKVFLDWLRTNPDLIIVCAQSSQSLWNRLSVLLNLLPAAGELQESGLALCPEVQDLLEGCELPDLPSSLLLPEDMALRNLPPLRAAHRRFNFDTDRPLLSTLEESVVRICCIRSFGHFIARLQGSILQFNPEVGIFVSIAQSEQESLLQQAQAQFRMAQEEARRNRLMRDMAQLRLQLEVSQLEGSLQQPKAQSAMSPYLVPDTQALCHHLPVIRQLATSGRFIVIIPRTVIDGLDLLKKEHPGARDGIRYLEAEFKKGNRYIRCQKEVGKSFERHKLKRQDADAWTLYKILDSCKQLTLAQGAGEEDPSGMVTIITGLPLDNPSVLSGPMQAALQAAAHASVDIKNVLDFYKQWKEIG
partner: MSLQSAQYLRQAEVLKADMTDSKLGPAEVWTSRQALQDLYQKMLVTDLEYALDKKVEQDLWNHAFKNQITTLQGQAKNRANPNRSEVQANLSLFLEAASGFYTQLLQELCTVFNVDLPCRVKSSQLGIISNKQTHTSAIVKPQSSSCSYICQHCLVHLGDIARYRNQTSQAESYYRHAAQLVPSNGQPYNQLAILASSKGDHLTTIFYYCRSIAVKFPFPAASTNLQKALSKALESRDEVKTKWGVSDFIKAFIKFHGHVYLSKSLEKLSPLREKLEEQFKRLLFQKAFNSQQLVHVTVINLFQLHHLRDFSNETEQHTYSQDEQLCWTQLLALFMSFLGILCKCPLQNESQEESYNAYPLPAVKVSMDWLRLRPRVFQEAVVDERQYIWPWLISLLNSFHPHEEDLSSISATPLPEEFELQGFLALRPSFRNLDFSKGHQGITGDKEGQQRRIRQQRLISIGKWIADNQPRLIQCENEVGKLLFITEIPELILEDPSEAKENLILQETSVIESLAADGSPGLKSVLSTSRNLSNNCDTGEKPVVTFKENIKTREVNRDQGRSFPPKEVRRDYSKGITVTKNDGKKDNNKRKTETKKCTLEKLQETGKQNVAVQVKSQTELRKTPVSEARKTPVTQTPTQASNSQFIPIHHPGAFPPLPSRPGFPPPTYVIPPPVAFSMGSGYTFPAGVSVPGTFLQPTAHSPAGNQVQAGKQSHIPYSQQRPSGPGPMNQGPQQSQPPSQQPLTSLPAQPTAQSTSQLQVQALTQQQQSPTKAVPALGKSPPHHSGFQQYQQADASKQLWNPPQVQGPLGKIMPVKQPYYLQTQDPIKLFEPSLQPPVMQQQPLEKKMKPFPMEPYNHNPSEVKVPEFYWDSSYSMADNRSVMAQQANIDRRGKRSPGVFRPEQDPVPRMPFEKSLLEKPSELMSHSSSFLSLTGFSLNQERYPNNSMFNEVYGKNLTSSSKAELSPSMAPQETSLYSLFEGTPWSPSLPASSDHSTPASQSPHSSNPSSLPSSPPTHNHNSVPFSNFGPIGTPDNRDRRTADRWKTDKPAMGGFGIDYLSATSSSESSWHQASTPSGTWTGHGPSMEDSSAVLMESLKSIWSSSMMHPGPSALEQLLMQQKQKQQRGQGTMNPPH
B2: Nonsense-mediated mRNA decay factor SMG7 (Homo sapiens), Q92540 (parent)
chain: B1 partner
partner: B1 chain

Variants of: B1
Conditions: with smg7_human SMG7, Q92540

effect of a mutation on the interaction | Variant
disrupting interaction strength | G120E

Variants of: B2
Conditions: with smg5_human SMG5, Q9UPR3

effect of a mutation on the interaction | Variant
disrupting interaction strength | G100E
disrupting interaction strength | T103E
